Results on 8 molecules are retold here after patent US20240002536A1 (GENERAL HOSPITAL, published 2024).

Primed or numbered codes have the meaning given here. Ends that are not written are not given here. * marks the point of attachment. Biotin = O=C1N[C@H]2[C@H](CS[C@H]2CCCCC(=O)*)N1; DBCO′ = dibenzocyclooctyne

In experiment [1] the target is T1, Az3.
T1 construct: Unclicked precursor of Az3db1; also called azide-peptide Az3; single half-peptide
T1 peptide: Biotin-SGGGERTHK(azide)
Briefly: phage ELISA, scFv displayed on M13.

The target of experiment [2] is T2, db1.
T2 construct: Unclicked precursor of Az3db1; also called DBCO-ARPDGG; db1 half-peptide
T2 peptide: {DBCO′}-ARPDGG
Briefly: phage ELISA, scFv displayed on M13. In general terms: ELISA stands for enzyme-linked immunosorbent assay.

The target in experiment [3] is T1, Az3. The experiment in a line: competition ELISA: ratio of response slopes on immobilised Az3db1 without competitor / with soluble Az3. On the procedure: (§1) We ranked the five scFv proteins 1S-5S in terms of their desired specificities and binding affinities. For this purpose, a series of ELISA-based competition assays were established, where scFvs were preincubated in solution with designated competitors before testing against immobilized target Az3db1 peptide. These included Az3db1 itself, and its constituent peptides Az3 and db1, in large (×100-fold) molar excess over the scFv proteins.
(§2) All ELISA assays used biotinylated target peptides for immobilized on streptavidin (SA) plates. For testing responses against Az3db1 (FIG. 3), a stock of the click product between peptides Az3 and db1 was made by incubating both together at 4.5 mM concentration in PBS pH 7.4 for 16 hr, conditions resulting in ≥70% conversion to the click product (FIG. 4). The resulting Az3db1 was positioned in an SA plate by incubating appropriate wells (after initial plate washing) with 100 μl of 1 pmol/μl of peptide. Dilutions of scFvs or IgG1-51 were made in PBS with 10 mg/ml bovine serum albumin (BSA) to levels typically beginning at 50 pg/μl, then in extended 2-fold dilution series from that point. Antibody or scFv dilutions were then incubated with Az3db1 target for 1 hr/room temperature, followed by treatment with appropriate secondary antibody-HRP conjugates (anti-human kappa for IgG1-51, anti-6H hexahistidine for all scFvs). After extensive washing, signals based on HRP activity from standard chromogenic substrates were read in a plate reader and collated.

Experiment [4] has as its target T2, db1. The experiment in a line: competition ELISA: ratio of response slopes on immobilised Az3db1 without competitor / with soluble Db1. As to the method: as §1
as §2, with “Antibody or scFv dilutions were then incubated with Az3db1 target for 1 hr/room temperature, followed by treatment with appropriate secondary antibody-HRP conjugates (anti-human kappa for IgG1-51, anti-6H hexahistidine for all scFvs).” left out

Experiment [5] has as its target T3, Az3db1 (also: triazole at chain A 9 to a chain's N-terminus).
T3 construct: Two synthetic peptides joined through the azide-DBCO click product; conversion to the click product was >=70%; also called click product of peptides Az3 and db1; original selection peptide
T3 peptide 1: Biotin-SGGGERTHK(azide)
T3 peptide 2: {DBCO′}-ARPDGG
Briefly: ELISA-based competition in solution by the method of Friguet et al.; average of four independent determinations.

The target in experiment [6] is (glycan chain)--(N-acetylmannosamine)-<azide-DBCO>-ARPDGG. Briefly: flow cytometry on Jurkat cells pre-incubated with AzNAM and treated with Db1 peptide; DMSO-control cells treated with Db1 printed as 'Geo. Mean = 1.4'. (Flow cytometry measures light scatter and fluorescence of single cells or particles in a stream.)
For experiment [7], the target named is T3, Az3db1. The experiment in a line: competition ELISA after Friguet, plot of Ao/(Ao-A) against 1/a0 with soluble Az3Db1 competitor; one single determination. On the procedure:
The binding affinity of IgG1-51 antibody towards Az3db1 was measured in an ELISA-based format by the method of Friguet et al. (1985), to yield the dissociation constant (KD) from a specific data plot. Because the total concentration of free competitor in these studies is large compared to the concentration of antibody (antibody concentration ˜0.1 nm), the simplification of the Scatchard-Klotz equation as derived by Friguet et al. was used, as: […]

As a reminder, the Kd is the constant that tells how readily two partners part at equilibrium.

B1: scFv-64 (scFv)
scFv: EVQLVESGSELKKPGASVKVSCKASGYTFTSYAINWVRQAPGQGLEWMGWINTNTGNPTYAQGFTGRFVFSLDTSVSTAYLQISSLKAEDTAVYYCARGYYDSSGYNFDYWGKGTLVTVSSGGGGSGGGGSGGGGSQAVLTQPSSLSASPGASASLTCTLRSGINVGTYRIYWYQQKPGSPPQYLLRYKSDSDKQQGSGVPSRFSGSKDASANAGILLISGLQSEDEADYYCMIWHSSAWVFGGGTKLTVLG
notes: VH-(GGGGS)3 linker-VL from the human phage library HuScL-6; It was also expressed as an E. coli hexahistidine (6H) fusion
B1: the binding result with Az3 [1] and with db1 [2] was “no binding” throughout.

B2: scFv-18 (scFv)
scFv: QVQLVESGSELKKPGASVKVSCKASGYTFTNYAMNWVRQAPGQGLEWLGWINTNTGNPTYAQGFTGRFVFSLDTSVSTAYLQISSLKAEDTAVYYCARGSLGGTFDYWGQGTPVTVSSGGGGSGGGGSGGGGSQAVLTQPSSLSASPGASASLTCTLRSGINVGTYRIYWYQQKPGSPPQYLLRYKSDSDKHQDSGVPSRFSGSTDASANAGILLISGLQSEDEADYYCMIWHSRAWVFGGGTRGEIKR
notes: VH-(GGGGS)3 linker-VL from the human phage library HuScL-6; Protein ELISAs used an E. coli hexahistidine (6H) fusion; also called scFv-1S; 1S
On to B2, for which the binding result with Az3 [3] and with db1 [4] was “no binding” throughout.

B3: IgG1-51 (antibody, V domains shown)
VH: QMQLVQSGSELKKPGASVKVSCKASGYTFTSYAMNWVRQAPGQGLEWMGWINTNTGNPTYAQGFTGRFVFSLDTSVSTAYLQISSLKAEDTAVYYCARFDRPRGAFDIWGQGTLVTVSS
VL: QAVLTQPSSLSASPGASASLTCTLRSGINVGTYRIYWYQQKPGSPPQYLLRYKSDSDKQQGSGVPSRFSGSKDASANAGILLISGLQSEDEADYYCMIWHSSAWVFGGGTKLTVLG
notes: VH and VL of scFv-51 fused in frame to human Cgamma1 and Ckappa and co-expressed in Hek293 cells; also called Ab51; antibody 51; not shown: Human Gamma1 C-region, Uniprot code P01857.1; Human Kappa C-region, Uniprot code P01834.2
As for B3, the Kd is 160 nM in the experiment with Az3db1 [5] and 175 nM in the experiment with Az3db1 [7]. Further, the geometric mean fluorescence (Geo. Mean) in experiment [6] turned out to be 226.

B4: scFv-36 (scFv)
scFv: QVQLVQSGAEVKKPGASVKVSCKASGYTFTSYGISWVRQAPGQGLEWMGWINTNTGNPTYAQGFTGRSVFSLDTSVSTAYLQISSLKAEDSAVYYCARHSDDGAFDIWGKGTMVTVSSGGGGSGGGGSGGGGSQAVLTQPSSLSASPGASASLTCTLRSGINVGTYRIYWYQQKPGSPPQYLLRYKSDSDKQQGSGVPSRFSGSKDASANAGTLLISGLQSEDEADYYCAIWHSSTWVFGGGTKVTVLG
notes: VH-(GGGGS)3 linker-VL from the human phage library HuScL-6; Protein ELISAs used an E. coli hexahistidine (6H) fusion; also called scFv-2S; 2S
With B4, in the experiment with Az3 [3], the binding result is recorded as “no binding”.

B5: scFv-83 (scFv)
scFv: QVQLVQSGAEVKKPGASVKVSCKASGYSFTSYAMNWVRQAPGQGLEWMGWINTNTGNPMYAQGFTGRFVFSLDTSVSTAYLEVSSLKAEDTAVYFCARYNAMDVWGQGTTVTVSSGGGGSGGGGSGGGGSQAVLTQPSSLSASPGASASLTCTLRSGINVGTYRIYWYQQKPGSPPQYLLRYKSDSDKQQGSGVPSRFSGSKDASANAGILLISGLQSEDEADYYCMIWHSSAWVFGGGTKVTVLG
notes: VH-(GGGGS)3 linker-VL from the human phage library HuScL-6; expression as a protein failed
Regarding B5, the binding result with Az3 [1] and with db1 [2] was “no binding” each time.

B6: scFv-69 (scFv)
scFv: QVQLVQSGSELKKPGASVKVSCKASGYTFTSYAMNWVRQAPGQGLEWMGWINTNTGNPTYAQGFTGRFVFSLDTSVSTAYLQISSLKAEDTAVYYCARGAAGVFDIWGKGTTVTVSSGGGGSGGGGSGGGGSQAVLTQPSSLSASPGASASLTCTLRSGINVGTYNIYWYQQKPGSPPQFLLRYKSDSDKQQVSGVPSRFSGSKDGSANAGILLISGLQSEDEADYYCMIWHSSAWVFGGGTKLTVLG
notes: as for B1
B6: the binding result in the experiment with Az3 [1] and with db1 [2] was “no binding” each time.

B7: scFv-72 (scFv)
scFv: EVQLVESGAEVKKPGASVKVSCKASGYTFTSYAMNWVRQAPGQGLEWMGWINTNTGNPTYAQGFTGRFVFSLDTSVSTAYLQISSLKAEDTAVYYCARQRDYRMDVWGQGTMVTVSSGGGGSGGGGSGGGGSQAVLTQPSSLSASPGASASLTCTLRSGINVGTYRIYWYQQKPGSPPQYLLRYKSDSDKQQASGVPSRFSGSKDASANAGILLISGLQSEDEADYYCLIWHNNAWVFGGGTKVTVLG
notes: as for B5
Take B7: the binding result with Az3 [1] and with db1 [2] was “no binding” throughout.

B8: scFv-44 (scFv)
scFv: QVQLVQSGAEVKKPGSSVKVSCKASGYTFADYAINWVRQAPGQGLEWMGWINTNTGNPTYAQGFTGRFVFSLDTSVSTAYLQISSLEAEDTAVYYCARHFSGYSLDAVDIWGQGTLVTVSSGGGGSGGGGSGGGGSQAVLTQPSSLSASPGTSASLTCTLRSDINVGAYRIYWYKHKAGSPPQFLLRFKSDSDNYRGSGVPGRFSGSKDASANAGILLISGLQSEDEADYYCAIWHSSTWVFGGGTKLTVLG
notes: VH-(GGGGS)3 linker-VL from the human phage library HuScL-6; Protein ELISAs used an E. coli hexahistidine (6H) fusion; also called scFv-3S; 3S
For B8, the binding result in the experiment with Az3 [3] and with db1 [4] was “no binding” throughout.
